The Km is the concentration of substrate that gives half-maximal velocity.

The source of these data is article PMC11818568, “Characterization of Tetrathionate Hydrolase from Acidothermophilic Sulfur-Oxidizing Archaeon Metallosphaera cuprina Ar-4” (International Journal of Molecular Sciences, 2025).

Substrate in this data set: O=S(=O)(O)SSS(=O)(=O)O
The experiment in a line: HPLC discontinuous assay, Michaelis-Menten. It is filed as biochemical, Metallosphaera cuprina. The settings on record: pH 6.0, 95 °C, 1.15 µg enzyme, K2S4O6 varied.

B1: TTHMc (tetrathionate hydrolase, Mcup_1281) (Metallosphaera cuprina Ar-4) (protein)
chain: PSITQIVSQVITPIPQPIVRTYDIYNTTYFPYEVKVTYYPGNATSQNLGLPGSWLVTNGGQSHNAVVDTTCTELIQGVSWQQDFAHMAGAALIPLSAPENMLPGSNVMGTRSALVMLTQMVGEPLGVSLADNLLFVEEDSGPGSIFAVNPLNGQVVWYATGLASYAMNNPIVYNGIVYVTVGDVGFNFANFVHYENGQYSAIHRGMAYGAIYAFNASDGILLWMRFTMGEAMPAPAVYDGILAYSDGGGEFVGVNATTGQTLWMDSIPGLFDSMSSVNYYVMPNGTPLFVAGFTSLTEPFGLLVAVNGITGKMVWNASLPSPNKPFNTGMGDVPPAVDQSLGIVVQSTVANAEPNGTVDTMVLAVNATNGHVLWVTNLGRGYTPPAFKGAVPMIYNNTVFVGAPSLGTEFALNISTGRIIWQTRLNGISLPPTAPGGPRGSATIYDNLLWIAGGPNVYVLNPHNGDLLQQYYVGGRFGIVNPVIAGNTMYLTNSYGWVIAIPLYQVFPLFQYYTNS
notes: native enzyme purified from tetrathionate-grown M. cuprina Ar-4 cells (soluble fraction; DEAE, HIC, size exclusion, Q-Sepharose); no tag; SDS band about 54 kDa; no homodimer observed
As to B1, the Michaelis constant (Km) was 350 µM.
